# Assay results from US20160177307.
# Target: PDGF-BB (platelet-derived growth factor BB) (Homo sapiens) (UniProt P01127)
# Assay: filter
# [1] = all P are NapdU, rest DNA, SB18T, 37 C
# [2] = all Z are BndU, rest DNA, SB18T, 37 C
# [3] = Tyr, MBn, FBn, Ib, 2Nap, Pe, Th, NE dU, Heg, 2'-OMe
# [4] = Trp, Ib, NE, Th, Pe, MBn dU, Heg, 2'-OMe
# Sequence of PDGF-BB (platelet-derived growth factor BB) (Homo sapiens) (P01127 82-190): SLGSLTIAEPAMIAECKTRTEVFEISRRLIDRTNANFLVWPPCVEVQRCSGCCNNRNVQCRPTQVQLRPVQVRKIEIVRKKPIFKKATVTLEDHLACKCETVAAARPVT
substance,measurement,setting,value
CGACAGCATGTATGCACATCTAG [5169-4_24],Kd,NapdU at P,0.021 nM
CGACAGCATGTATGCACATCTAGA [5169-4_23],Kd,NapdU at P,0.02 nM
CGACAGCATGTATGCACATCTAGAG [5169-4_22],Kd,NapdU at P,0.015 nM
CGACAGCATGTATGCACATCTAGAGG [5169-4_21],Kd,NapdU at P,0.021 nM
CGACAGCATGTATGCACATCTAGAGGC [5169-4_20],Kd,NapdU at P,0.014 nM
CGACAGCATGTATGCACATCTAGAGGCT [5169-4_19],Kd,[1],0.012 nM
CGACAGCATGTATGCACATCTAGAGGCTA [5169-4_18],Kd,NapdU at P,0.026 nM
CGACAGCATGTATGCACATCTAGAGGCTACCCAGT [5169-4_17],Kd,NapdU at P,0.02 nM
CGACAGCATGTATGCACATCTAGAGGCTACCCAGTG [5169-4_16],Kd,NapdU at P,0.016 nM
CGACAGCATGTATGCACATCTAGAGGCTACCCAGTGA [5169-4_15],Kd,NapdU at P,0.019 nM
CGACAGCATGTATGCACATCTAGAGGCTACCCAGTGAA [5169-4_12],Kd,NapdU at P,0.064 nM
CGACAGCATGTATGCACATCTAGAGGCTACCCAGTGAATGAGGA [5169-4_5],Kd,NapdU at P,0.031 nM
CGACAGCATGTATGCACATT [5169-4_78],Kd,"NapdU at P, C3 spacer at 20",0.28 nM
CGACAGCATGTATGCACTCT [5169-4_76],Kd,"C3 spacer at 18, NapdU at 9,11,13,19,21, C3 spacer walk",1.3 nM
CGACAGCATGTATGCCATCT [5169-4_74],Kd,"NapdU at P, C3 spacer at 16",0.37 nM
CGACAGCTGTATGCACATCT [5169-4_66],Kd,"C3 spacer at 8, NapdU at 9,11,13,19,21, C3 spacer walk",8.5 nM
CGACGCATGTATGCACATCT [5169-4_63],Kd,"NapdU at P, C3 spacer at 5",29 nM
CGACTACGTTACACGCGTTTATAGCGTCAACCCGAGTGAACA [4149-8_14],Kd,[2],13 nM
CGTTACACGCGTTTATAGCGTCAACCCGAGTGAACA [4149-8_17],Kd,Bn-dU,> 10 nM
CTCTTACGACTACGTTACACGCGTTTATAGCGTC [4149-8_27],Kd,[2],0.09 nM
CTCTTACGACTACGTTACACGCGTTTATAGCGTCAACCCGAGTGAACA [4149-8_11],Kd,[2],0.03 nM
CTGCCTCGACAGCATGTATGCACATCTAGAGGCTA [5169-4_11],Kd,NapdU at P,0.6 nM
CTGCCTCGACAGCATGTATGCACATCTAGAGGCTACCC [5169-4_10],Kd,NapdU at P,0.63 nM
CTGCCTCGACAGCATGTATGCACATCTAGAGGCTACCCAGT [5169-4_9],Kd,[1],0.72 nM
CTGCCTCGACAGCATGTATGCACATCTAGAGGCTACCCAGTGAA [5169-4_8],Kd,NapdU at P,0.036 nM
CTGCCTCGACAGCATGTATGCACATCTAGAGGCTACCCAGTGAATGA [5169-4_7],Kd,NapdU at P,0.014 nM
CTGCCTCGACAGCATGTATGCACATCTAGAGGCTACCCAGTGAATGAGGA [5169-4_3],Kd,[1],0.029 nM
CTTACGACTACGTTACACGCGTTTA [4149-8_35],Kd,Bn-dU,> 10 nM
CTTACGACTACGTTACACGCGTTTAT [4149-8_34],Kd,Bn-dU,> 10 nM
CTTACGACTACGTTACACGCGTTTATAG [4149-8_32],Kd,[2],6 nM
CTTACGACTACGTTACACGCGTTTATAGC [4149-8_31],Kd,[2],0.3 nM
CTTACGACTACGTTACACGCGTTTATAGCG [4149-8_30],Kd,[2],0.07 nM
CTTACGACTACGTTACACGCGTTTATAGCGT [4149-8_29],Kd,[2],0.07 nM
CTTACGACTACGTTACACGCGTTTATAGCGTCAACCCGA [4149-8_26],Kd,[2],0.08 nM
CTTACGACTACGTTACACGCGTTTATAGCGTCAACCCGAGTGAACA [4149-8_12],Kd,[2],0.04 nM
E10030 (Fovista),Kd,comparator,0.047 nM
GACAGCATGTATGCACATCT [5169-4_30],Kd,[1],0.062 nM
GACAGCATGTATGCACATCT [5169-4_59],Kd,"C3 spacer at 1, NapdU at 9,11,13,19,21, C3 spacer walk",0.053 nM
GACAGCATGTATGCACATCTA [5169-4_29],Kd,NapdU at P,0.062 nM
GACAGCATGTATGCACATCTAG [5169-4_28],Kd,NapdU at P,0.048 nM
GACAGCATGTATGCACATCTAGA [5169-4_27],Kd,NapdU at P,0.062 nM
GACAGCATGTATGCACATCTAGAG [5169-4_32],Kd,NapdU at P,0.053 nM
GACAGCATGTATGCACATCTAGAGGCTACCCAGTGAA [5169-4_13],Kd,NapdU at P,0.027 nM
TACGACTACGTTACACGCGTTTATAGCG [4149-8_65],Kd,"Bn-dU, C3 at 2",> 10 nM
TACGACTACGTTACACGCGTTTATAGCGTCAACCCGAGTGAACA [4149-8_13],Kd,[2],0.8 nM
TACGTTACACGCGTTTATAGCGTCAACCCGAGTGAACA [4149-8_16],Kd,[2],22 nM
TTACACGCGTTTATAGCGTCAACCCGAGTGAACA [4149-8_18],Kd,[2],13 nM
TTACGACTACGTACACGCGTTTATAGCG [4149-8_75],Kd,"Bn-dU, C3 at 12",> 10 nM
TTACGACTACGTACACGCGTTTATAGCG [4149-8_76],Kd,"Bn-dU, C3 at 13",> 10 nM
TTACGACTACGTTACACCGTTTATAGCG [4149-8_81],Kd,"Bn-dU, C3 at 18",> 10 nM
TTACGACTACGTTACACGCGTTATAGCG [4149-8_84],Kd,"Bn-dU, C3 at 21",> 10 nM
TTACGACTACGTTACACGCGTTATAGCG [4149-8_85],Kd,"Bn-dU, C3 at 22",> 10 nM
TTACGACTACGTTACACGCGTTATAGCG [4149-8_86],Kd,"Bn-dU, C3 at 23",> 10 nM
TTACGACTACGTTACACGCGTTTA [4149-8_43],Kd,Bn-dU,> 10 nM
TTACGACTACGTTACACGCGTTTAAGCG [4149-8_88],Kd,"Bn-dU, C3 at 25",> 10 nM
TTACGACTACGTTACACGCGTTTAT [4149-8_42],Kd,Bn-dU,> 10 nM
TTACGACTACGTTACACGCGTTTATACG [4149-8_90],Kd,"Bn-dU, C3 at 27",> 10 nM
TTACGACTACGTTACACGCGTTTATAG [4149-8_40],Kd,"BndU at 1,2,8,12,13,21,22,23,25, rest DNA, SB18T, 37 C",1.5 nM
TTACGACTACGTTACACGCGTTTATAGCG [4149-8_38],Kd,"BndU at 1,2,8,12,13,21,22,23,25, rest DNA, SB18T, 37 C, text p191 gives 20 pM, Table 1a 30 pM",0.05 nM
TTACGACTACGTTACACGCGTTTATAGCG [4149-8_104],Kd,"Bn-dU, 2'-OMe U2",> 10 nM
TTACGACTACGTTACACGCGTTTATAGCG [4149-8_107],Kd,"Bn-dU, 2'-OMe U13",> 10 nM
TTACGACTACGTTACACGCGTTTATAGCG [4149-8_108],Kd,"Bn-dU, 2'-OMe U21",> 10 nM
TTACGACTACGTTACACGCGTTTATAGCG [4149-8_109],Kd,"Bn-dU, 2'-OMe U22",> 10 nM
TTACGACTACGTTACACGCGTTTATAGCG [4149-8_111],Kd,"Bn-dU, Nap-dU1, 2'-OMe U25",> 10 nM
TTACGACTACGTTACACGCGTTTATAGCGT [4149-8_37],Kd,[2],0.04 nM
TTACGACTACGTTACACGCGTTTATGCG [4149-8_89],Kd,"Bn-dU, C3 at 26",> 10 nM
TTACGACTACGTTACACGCTTTATAGCG [4149-8_83],Kd,"Bn-dU, C3 at 20",> 10 nM
TTACGACTACGTTACACGGTTTATAGCG [4149-8_82],Kd,"Bn-dU, C3 at 19",> 10 nM
TTACGACTACGTTCACGCGTTTATAGCG [4149-8_77],Kd,"Bn-dU, C3 at 14",> 10 nM
TTACGACTACTTACACGCGTTTATAGCG [4149-8_74],Kd,"Bn-dU, C3 at 11",> 10 nM
TTACGCCGTTACACGCGTTTATAGCG [4149-8_102],Kd,"Bn-dU, C3 linkers, 2'-OMe",> 10 nM
TTACGTTACACGCGTTTATAGCG [4149-8_127],Kd,"Bn-dU, Nap-dU, Heg, 2'-OMe U as printed",> 10 nM
TTACGTTACACGCGTTTATAGCG [4149-8_129],Kd,"Bn-dU, Nap-dU, Heg, 2'-OMe",> 10 nM
TTACGTTACACGCGTTTATAGCG [4149-8_134],Kd,Bn-dU,> 10 nM
TTACGTTACACGCGTTTATAGCG [4149-8_178],Kd,"Bn-dU, Trp-dU8, Heg5, 2'-OMe A3, A11, A21, G24",> 10 nM
TTACGTTACACGCGTTTATAGCG [4149-8_179],Kd,"Bn-dU, Trp-dU16, Heg5, 2'-OMe A3, A11, A21, G24",> 10 nM
TTACGTTACACGCGTTTATAGCG [4149-8_180],Kd,"Bn-dU, Trp-dU17, Heg5, 2'-OMe A3, A11, A21, G24",> 10 nM
TTACGTTACACGCGTTTATAGCG [4149-8_186],Kd,"Bn-dU, 2Nap-dU8, Heg5, 2'-OMe A3, A11, A21, G24",> 10 nM
TTACGTTACACGCGTTTATAGCG [4149-8_196],Kd,"Bn-dU, 2NE-dU17, Heg5, 2'-OMe A3, A11, A21, G24",> 10 nM
TTACGTTACACGCGTTTATAGCG [4149-8_244],Kd,"Bn-dU, Heg5, 2'-OMe A3, A9, A11, A21, G24",> 10 nM
TTACGTTACACGCGTTTATAGCG [4149-8_250],Kd,[3],> 10 nM
TTACGTTACACGCGTTTATAGCG [4149-8_251],Kd,[3],> 10 nM
TTACGTTACACGCGTTTATAGCG [4149-8_252],Kd,[4],> 10 nM
TTACGTTACACGCGTTTATAGCG [4149-8_253],Kd,[4],> 10 nM
TTACGTTACACGCGTTTATAGCG [4149-8_258],Kd,"Bn-dU, 2'-OMe U7, Ib-dU8, Heg5, 2'-OMe A3, A11, A21, G24",> 10 nM
TTACGTTACACGCGTTTATAGCG [4149-8_276],Kd,"Bn-dU, FBn-dU7, Ib-dU8, Pe-dU17, Th-dU18, Heg5, 2'-OMe A3, A11, A21, G24",> 10 nM
TTACGTTACACGCGTTTATAGCG [4149-8_277],Kd,"Bn-dU, Tyr-dU1, Ib-dU8, Pe-dU17, Th-dU18, Heg5, 2'-OMe A3, A11, A21, G24",> 10 nM
TTACGTTACACGCGTTTATAGCG [4149-8_278],Kd,"Bn-dU, Tyr-dU1, FBn-dU7, Ib-dU8, 2Nap-dU16, Pe-dU17, Th-dU18, Heg5, 2'-OMe A3, A11, A21, G24",> 10 nM
TTACGTTACACGCGTTTATAGCG [4149-8_305],Kd,"Bn-dU, 2'-OMe Bn-U1, Heg5, 2'-OMe A3, A11, A21, G24",> 10 nM
TTACGTTACACGCGTTTATAGCG [4149-8_306],Kd,"Bn-dU, 2'-OMe Bn-U2, Heg5, 2'-OMe A3, A11, A21, G24",> 10 nM
TTACGTTACACGCGTTTATAGCG [4149-8_309],Kd,"Bn-dU, 2'-OMe Bn-U16, Heg5, 2'-OMe A3, A11, A21, G24",> 10 nM
TTACGTTACACGCGTTTATAGCG [4149-8_310],Kd,"Bn-dU, 2'-OMe Bn-U17, Heg5, 2'-OMe A3, A11, A21, G24",> 10 nM
